Key:
[1] = molecular target: topoisomerase I from H358 cells (serine-phosphorylated) (human) (UniProt P11387); assay: IP/Western analysis, FIG. 5D upper panel lane 5
[2] = molecular target: topoisomerase I from H358 cells (serine-phosphorylated) (human) (UniProt P11387); assay: co-immunoprecipitation followed by Western analysis, 48 hours after Adp14 (moi 20 pfu/cell)
[3] = molecular target: topoisomerase I from H358 cells (serine-phosphorylated) (human) (UniProt P11387); assay: IP/Western analysis, FIG. 5D upper panel

topoisomerase I from H358 cells (serine-phosphorylated) (human), sequence (P11387 2-765 limits assumed): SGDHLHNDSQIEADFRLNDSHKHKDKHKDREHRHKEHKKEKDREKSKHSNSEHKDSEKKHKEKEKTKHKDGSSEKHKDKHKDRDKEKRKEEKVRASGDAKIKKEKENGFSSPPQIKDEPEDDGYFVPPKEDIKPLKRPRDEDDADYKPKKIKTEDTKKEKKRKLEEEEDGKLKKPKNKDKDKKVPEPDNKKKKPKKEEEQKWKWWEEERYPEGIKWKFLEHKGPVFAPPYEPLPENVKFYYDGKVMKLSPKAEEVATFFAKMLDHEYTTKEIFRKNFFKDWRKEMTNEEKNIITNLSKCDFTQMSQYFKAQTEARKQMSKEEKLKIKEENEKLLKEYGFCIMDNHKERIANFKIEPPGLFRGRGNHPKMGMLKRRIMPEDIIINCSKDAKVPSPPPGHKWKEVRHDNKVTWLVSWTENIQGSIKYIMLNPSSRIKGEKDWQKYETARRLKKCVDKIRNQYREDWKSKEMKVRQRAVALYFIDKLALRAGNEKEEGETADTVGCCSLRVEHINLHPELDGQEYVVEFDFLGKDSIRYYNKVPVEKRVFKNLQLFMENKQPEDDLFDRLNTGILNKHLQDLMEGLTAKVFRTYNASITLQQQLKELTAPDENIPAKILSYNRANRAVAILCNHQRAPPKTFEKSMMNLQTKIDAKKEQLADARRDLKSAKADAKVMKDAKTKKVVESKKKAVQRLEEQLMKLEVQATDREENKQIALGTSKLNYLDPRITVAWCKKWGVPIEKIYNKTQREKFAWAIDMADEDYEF

p14ARF (ARF), cellular protein in nuclear extracts (endogenous or expressed from the Adp14 adenoviral vector) (from UniProt Q8N726 1-132)
3 fold: fold decrease in ARF/topoisomerase I complex formation in ARF siRNA-treated H358 cells [1] | fold increase of co-immunoprecipitated ARF-topoisomerase I complexes after Adp14 treatment against untreated H358 cells [2] | fold increase in ARF/topoisomerase I complex formation in Adp14-treated H358 cells against Ad1β-treated, control siRNA treated, or non-vector treated cells [3]
